One substance from patent publication US20070276124A1 can be followed below.

The target of assay [1] is His6-Sep fusion protein from construct BspA-6xHis-Sep (Lactobacillus fermentum BR11). As to the kind of experiment: whole cell ELISA for the His6 epitope on L. fermentum cells with BspA-6xHis-Sep against parent BR11 cells.
For assay [2] the target is unchanged. The experiment in a line: whole cell ELISA for the His6 epitope on L. fermentum cells with BspA-6xHis-Sep; parent BR11 cells gave 0.0168±0.0007. (In general: In an ELISA, binding on a coated surface is turned into a signal by an enzyme label.)

Take “anti-His5 monoclonal antibody (Qiagen, Hilden, Germany)”: in assay [1], the fold signal over L. fermentum BR11 parent cells worked out at 1.8 fold. The A450nm signal per OD600 nm unit of cells (A450nm per OD600 nm unit of cells) in assay [2] turned out to be 0.0302.
